Reference: US20230416330A1, “Optimized GIP Peptide Analogues” (Antag Therapeutics ApS, priority 2019, published 2023)
Starred links: 1 amine or outer side, 2 acyl side, 3 side chain; linkers in the order of their positions; H or OH if unused. Non-standard residues stand in square brackets, D forms with d. No end group written: not given here. *: point of attachment. C16 diacid = O=C(O)CCCCCCCCCCCCCCC(=O)*; Glutaryl = O=C(CCCC(=O)[*:2])[*:1]; Aib = CC(C)(N)C(=O)O

T1: human GIP receptor (human, UniProt P48546 22-466)
T1 sequence (looked up): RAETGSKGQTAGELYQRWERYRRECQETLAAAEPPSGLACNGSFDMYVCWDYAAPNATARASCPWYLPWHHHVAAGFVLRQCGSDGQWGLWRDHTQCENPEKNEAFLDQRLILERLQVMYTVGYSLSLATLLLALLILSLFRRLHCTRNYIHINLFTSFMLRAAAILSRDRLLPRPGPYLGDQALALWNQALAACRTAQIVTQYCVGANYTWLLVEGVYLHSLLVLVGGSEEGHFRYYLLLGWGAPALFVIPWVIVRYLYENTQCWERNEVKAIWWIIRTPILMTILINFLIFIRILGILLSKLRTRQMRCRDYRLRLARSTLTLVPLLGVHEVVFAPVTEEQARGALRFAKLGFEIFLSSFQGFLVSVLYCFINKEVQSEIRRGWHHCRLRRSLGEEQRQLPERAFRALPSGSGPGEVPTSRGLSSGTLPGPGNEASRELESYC


Assays:
[1] = target: T1, human GIP receptor; experiment: cell-based or functional assay
[2] = target: T1, human GIP receptor; experiment: cell-based or functional assay; remark: listed apart in the source

Row | Binder | cAMP antagonism % inhib (CisBio assay) [1] [%] | cAMP antagonism nM (IC50, CisBio assay) [1] [nM] | cAMP antagonism pIC50 (CisBio assay) [1] | nM (Kb, Gaddum assay, cAMP) [2] [nM] | pKb (Gaddum assay, cAMP) [2]
1 | EGTFISEYSIAMEKIK(C16 diacid)QQEFVEWLLAQKPSSGAPPPS-OH (N-terminus assumed; SMILES CC[C@H](C)[C@H](NC(=O)[C@H](CO)NC(=O)[C@H](Cc1ccc(O)cc1)NC(=O)[C@H](CCC(=O)O)NC(=O)[C@H](CO)NC(=O)[C@@H](NC(=O)[C@H](Cc1ccccc1)NC(=O)[C@@H](NC(=O)CNC(=O)[C@@H](N)CCC(=O)O)[C@@H](C)O)[C@@H](C)CC)C(=O)N[C@@H](C)C(=O)N[C@@H](CCSC)C(=O)N[C@@H](CCC(=O)O)C(=O)N[C@@H](CCCCN)C(=O)N[C@H](C(=O)N[C@@H](CCCCNC(=O)CCCCCCCCCCCCCCC(=O)O)C(=O)N[C@@H](CCC(N)=O)C(=O)N[C@@H](CCC(N)=O)C(=O)N[C@@H](CCC(=O)O)C(=O)N[C@@H](Cc1ccccc1)C(=O)N[C@H](C(=O)N[C@@H](CCC(=O)O)C(=O)N[C@@H](Cc1c[nH]c2ccccc12)C(=O)N[C@@H](CC(C)C)C(=O)N[C@@H](CC(C)C)C(=O)N[C@@H](C)C(=O)N[C@@H](CCC(N)=O)C(=O)N[C@@H](CCCCN)C(=O)N1CCC[C@H]1C(=O)N[C@@H](CO)C(=O)N[C@@H](CO)C(=O)NCC(=O)N[C@@H](C)C(=O)N1CCC[C@H]1C(=O)N1CCC[C@H]1C(=O)N1CCC[C@H]1C(=O)N[C@@H](CO)C(=O)O)C(C)C)[C@@H](C)CC) [AT614] | 100 | 1.08 | 9 | – | –
2 | EGTFISEYSIALEKIK(C16 diacid)QQEFVEWLLAQKPSSGAPPPS-OH [AT718] | – | – | – | 0.33 | 9.5
3 | EGTFISDYSIAMDKIK(C16 diacid)QQDFVEWLLAQKPSSGAPPPS-OH (N-terminus assumed; SMILES CC[C@H](C)[C@H](NC(=O)[C@H](CO)NC(=O)[C@H](Cc1ccc(O)cc1)NC(=O)[C@H](CC(=O)O)NC(=O)[C@H](CO)NC(=O)[C@@H](NC(=O)[C@H](Cc1ccccc1)NC(=O)[C@@H](NC(=O)CNC(=O)[C@@H](N)CCC(=O)O)[C@@H](C)O)[C@@H](C)CC)C(=O)N[C@@H](C)C(=O)N[C@@H](CCSC)C(=O)N[C@@H](CC(=O)O)C(=O)N[C@@H](CCCCN)C(=O)N[C@H](C(=O)N[C@@H](CCCCNC(=O)CCCCCCCCCCCCCCC(=O)O)C(=O)N[C@@H](CCC(N)=O)C(=O)N[C@@H](CCC(N)=O)C(=O)N[C@@H](CC(=O)O)C(=O)N[C@@H](Cc1ccccc1)C(=O)N[C@H](C(=O)N[C@@H](CCC(=O)O)C(=O)N[C@@H](Cc1c[nH]c2ccccc12)C(=O)N[C@@H](CC(C)C)C(=O)N[C@@H](CC(C)C)C(=O)N[C@@H](C)C(=O)N[C@@H](CCC(N)=O)C(=O)N[C@@H](CCCCN)C(=O)N1CCC[C@H]1C(=O)N[C@@H](CO)C(=O)N[C@@H](CO)C(=O)NCC(=O)N[C@@H](C)C(=O)N1CCC[C@H]1C(=O)N1CCC[C@H]1C(=O)N1CCC[C@H]1C(=O)N[C@@H](CO)C(=O)O)C(C)C)[C@@H](C)CC) [AT617] | 91 | 0.794 | 9.1 | – | –
4 | EGTFISDYSI[Aib]LDKIK(C16 diacid)QQDFVEWLLAQKPSSGAPPPS-OH [AT666] | 89 | 0.266 | 9.6 | – | –
5 | EGTFISEYSI[Aib]MEKIK(C16 diacid)QQDFVEWLLAQKPSSGAPPPS-OH (N-terminus assumed; SMILES CC[C@H](C)[C@H](NC(=O)[C@H](CCCCN)NC(=O)[C@H](CCC(=O)O)NC(=O)[C@H](CCSC)NC(=O)C(C)(C)NC(=O)[C@@H](NC(=O)[C@H](CO)NC(=O)[C@H](Cc1ccc(O)cc1)NC(=O)[C@H](CCC(=O)O)NC(=O)[C@H](CO)NC(=O)[C@@H](NC(=O)[C@H](Cc1ccccc1)NC(=O)[C@@H](NC(=O)CNC(=O)[C@@H](N)CCC(=O)O)[C@@H](C)O)[C@@H](C)CC)[C@@H](C)CC)C(=O)N[C@@H](CCCCNC(=O)CCCCCCCCCCCCCCC(=O)O)C(=O)N[C@@H](CCC(N)=O)C(=O)N[C@@H](CCC(N)=O)C(=O)N[C@@H](CC(=O)O)C(=O)N[C@@H](Cc1ccccc1)C(=O)N[C@H](C(=O)N[C@@H](CCC(=O)O)C(=O)N[C@@H](Cc1c[nH]c2ccccc12)C(=O)N[C@@H](CC(C)C)C(=O)N[C@@H](CC(C)C)C(=O)N[C@@H](C)C(=O)N[C@@H](CCC(N)=O)C(=O)N[C@@H](CCCCN)C(=O)N1CCC[C@H]1C(=O)N[C@@H](CO)C(=O)N[C@@H](CO)C(=O)NCC(=O)N[C@@H](C)C(=O)N1CCC[C@H]1C(=O)N1CCC[C@H]1C(=O)N1CCC[C@H]1C(=O)N[C@@H](CO)C(=O)O)C(C)C) [AT716] | – | – | – | 0.29 | 9.5
6 | EGTFISDYSI[Aib]MDKIK(C16 diacid)QQDFVEWLLAQKPSSGAPPPS-OH [AT665] | 88 | 0.15 | 9.8 | – | –
7 | EGTFISEYSI[Aib]MEKIK(C16 diacid)QQDFVEWLLAQKPSSGAPPPS-OH (N-terminus assumed; SMILES CC[C@H](C)[C@H](NC(=O)[C@H](CCCCN)NC(=O)[C@H](CCC(=O)O)NC(=O)[C@H](CCSC)NC(=O)C(C)(C)NC(=O)[C@@H](NC(=O)[C@H](CO)NC(=O)[C@H](Cc1ccc(O)cc1)NC(=O)[C@H](CCC(=O)O)NC(=O)[C@H](CO)NC(=O)[C@@H](NC(=O)[C@H](Cc1ccccc1)NC(=O)[C@@H](NC(=O)CNC(=O)[C@@H](N)CCC(=O)O)[C@@H](C)O)[C@@H](C)CC)[C@@H](C)CC)C(=O)N[C@@H](CCCCNC(=O)CCCCCCCCCCCCCCC(=O)O)C(=O)N[C@@H](CCC(N)=O)C(=O)N[C@@H](CCC(N)=O)C(=O)N[C@@H](CC(=O)O)C(=O)N[C@@H](Cc1ccccc1)C(=O)N[C@H](C(=O)N[C@@H](CCC(=O)O)C(=O)N[C@@H](Cc1c[nH]c2ccccc12)C(=O)N[C@@H](CC(C)C)C(=O)N[C@@H](CC(C)C)C(=O)N[C@@H](C)C(=O)N[C@@H](CCC(N)=O)C(=O)N[C@@H](CCCCN)C(=O)N1CCC[C@H]1C(=O)N[C@@H](CO)C(=O)N[C@@H](CO)C(=O)NCC(=O)N[C@@H](C)C(=O)N1CCC[C@H]1C(=O)N1CCC[C@H]1C(=O)N1CCC[C@H]1C(=O)N[C@@H](CO)C(=O)O)C(C)C) [AT616] | 100 | 0.473 | 9.3 | – | –
8 | Glutaryl-GTFISEYSI[Aib]LEKIK(C16 diacid)QQEFVEWLLAQKPSSGAPPPS-OH (SMILES CC[C@H](C)[C@H](NC(=O)[C@H](CCCCN)NC(=O)[C@H](CCC(=O)O)NC(=O)[C@H](CC(C)C)NC(=O)C(C)(C)NC(=O)[C@@H](NC(=O)[C@H](CO)NC(=O)[C@H](Cc1ccc(O)cc1)NC(=O)[C@H](CCC(=O)O)NC(=O)[C@H](CO)NC(=O)[C@@H](NC(=O)[C@H](Cc1ccccc1)NC(=O)[C@@H](NC(=O)CNC(=O)CCCC(=O)O)[C@@H](C)O)[C@@H](C)CC)[C@@H](C)CC)C(=O)N[C@@H](CCCCNC(=O)CCCCCCCCCCCCCCC(=O)O)C(=O)N[C@@H](CCC(N)=O)C(=O)N[C@@H](CCC(N)=O)C(=O)N[C@@H](CCC(=O)O)C(=O)N[C@@H](Cc1ccccc1)C(=O)N[C@H](C(=O)N[C@@H](CCC(=O)O)C(=O)N[C@@H](Cc1c[nH]c2ccccc12)C(=O)N[C@@H](CC(C)C)C(=O)N[C@@H](CC(C)C)C(=O)N[C@@H](C)C(=O)N[C@@H](CCC(N)=O)C(=O)N[C@@H](CCCCN)C(=O)N1CCC[C@H]1C(=O)N[C@@H](CO)C(=O)N[C@@H](CO)C(=O)NCC(=O)N[C@@H](C)C(=O)N1CCC[C@H]1C(=O)N1CCC[C@H]1C(=O)N1CCC[C@H]1C(=O)N[C@@H](CO)C(=O)O)C(C)C) [AT717] | – | – | – | 0.17 | 9.8
9 | EGTFISDYSIAMDKIK(C16 diacid)QQDFVEWLLAQAPSSGAPPPS-OH (N-terminus assumed; SMILES CC[C@H](C)[C@H](NC(=O)[C@H](CO)NC(=O)[C@H](Cc1ccc(O)cc1)NC(=O)[C@H](CC(=O)O)NC(=O)[C@H](CO)NC(=O)[C@@H](NC(=O)[C@H](Cc1ccccc1)NC(=O)[C@@H](NC(=O)CNC(=O)[C@@H](N)CCC(=O)O)[C@@H](C)O)[C@@H](C)CC)C(=O)N[C@@H](C)C(=O)N[C@@H](CCSC)C(=O)N[C@@H](CC(=O)O)C(=O)N[C@@H](CCCCN)C(=O)N[C@H](C(=O)N[C@@H](CCCCNC(=O)CCCCCCCCCCCCCCC(=O)O)C(=O)N[C@@H](CCC(N)=O)C(=O)N[C@@H](CCC(N)=O)C(=O)N[C@@H](CC(=O)O)C(=O)N[C@@H](Cc1ccccc1)C(=O)N[C@H](C(=O)N[C@@H](CCC(=O)O)C(=O)N[C@@H](Cc1c[nH]c2ccccc12)C(=O)N[C@@H](CC(C)C)C(=O)N[C@@H](CC(C)C)C(=O)N[C@@H](C)C(=O)N[C@@H](CCC(N)=O)C(=O)N[C@@H](C)C(=O)N1CCC[C@H]1C(=O)N[C@@H](CO)C(=O)N[C@@H](CO)C(=O)NCC(=O)N[C@@H](C)C(=O)N1CCC[C@H]1C(=O)N1CCC[C@H]1C(=O)N1CCC[C@H]1C(=O)N[C@@H](CO)C(=O)O)C(C)C)[C@@H](C)CC) [AT623] | 98 | 3.16 | 8.5 | – | –
